Data taken from paper PMC3670040, “Structure of Lipid Kinase p110β/p85β Elucidates an Unusual SH2-Domain-Mediated Inhibitory Mechanism” (Molecular Cell, 2011).

Biological target: T1, Mouse His6-p110β(1-1064) (mouse, UniProt Q8BTI9 1-1064)
T1 construct: p110β catalytic subunit of class IA PI3K, mouse, residues 1-1064 (full length); N-terminal extension from pFastBac-HTb printed as [residues removed]; (His6 tag and TEV site); this molecule is used there; also called full-length mouse p110β; p110β catalytic subunit; source: Sf9 cells, recombinant baculoviruses, coinfected with the regulatory subunit; complex purified (HisTrap, Q-Sepharose, …)
Assay: crystal structure; mouse His6-p110β(1-1064)/p85β-icSH2(423-722) complex at 4 mg/ml with 20 mM sodium phenyl phosphate and 150 μM GDC0941; 12% PEG 3350, 0.1 M potassium citrate pH 6, 0.4 M lithium sulfate, 22°C; 3.3 Å; one 1:1 complex in the asymmetric unit
Conditions: both partners purified

T1 sequence (Q8BTI9 whole entry, the tested form may be a part): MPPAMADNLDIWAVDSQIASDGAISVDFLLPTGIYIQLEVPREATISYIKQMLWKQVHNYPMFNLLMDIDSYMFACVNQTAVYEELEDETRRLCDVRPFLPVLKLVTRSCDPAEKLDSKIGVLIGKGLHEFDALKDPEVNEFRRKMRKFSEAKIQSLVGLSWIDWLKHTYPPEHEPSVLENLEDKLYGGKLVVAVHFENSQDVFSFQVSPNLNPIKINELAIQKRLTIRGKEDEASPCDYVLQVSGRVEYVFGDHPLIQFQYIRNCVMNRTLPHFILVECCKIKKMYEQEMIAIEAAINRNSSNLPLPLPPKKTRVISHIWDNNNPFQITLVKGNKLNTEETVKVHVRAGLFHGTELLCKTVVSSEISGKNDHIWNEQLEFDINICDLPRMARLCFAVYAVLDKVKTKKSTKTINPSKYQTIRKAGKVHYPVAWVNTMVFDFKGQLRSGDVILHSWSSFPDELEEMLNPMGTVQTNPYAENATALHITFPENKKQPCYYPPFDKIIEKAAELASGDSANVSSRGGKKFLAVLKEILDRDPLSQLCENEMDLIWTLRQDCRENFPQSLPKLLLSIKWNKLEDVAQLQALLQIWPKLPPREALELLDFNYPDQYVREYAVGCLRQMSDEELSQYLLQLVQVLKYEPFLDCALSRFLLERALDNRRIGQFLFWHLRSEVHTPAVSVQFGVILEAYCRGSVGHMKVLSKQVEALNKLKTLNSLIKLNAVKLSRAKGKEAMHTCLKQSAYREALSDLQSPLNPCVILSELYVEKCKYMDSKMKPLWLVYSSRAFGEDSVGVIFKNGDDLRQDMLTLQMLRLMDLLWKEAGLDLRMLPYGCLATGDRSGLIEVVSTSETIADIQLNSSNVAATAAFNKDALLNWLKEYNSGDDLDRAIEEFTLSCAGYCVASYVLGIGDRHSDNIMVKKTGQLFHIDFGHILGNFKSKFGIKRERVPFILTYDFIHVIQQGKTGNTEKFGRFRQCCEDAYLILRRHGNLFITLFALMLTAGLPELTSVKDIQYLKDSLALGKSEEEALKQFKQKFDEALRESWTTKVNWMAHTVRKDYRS

B1: mouse p85β-icSH2 (residues 423–722) (domain or fragment, UniProt O08908 423-722, looked up)
chain: QQDQVVKEDSIEAVGAQLKVYHQQYQDKSREYDQLYEEYTRTSQELQMKRTAIEAFNETIKIFEEQGQTQEKCSKEYLERFRREGNEKEMQRILLNSERLKSRIAEIHESRTKLEQDLRAQASDNREIDKRMNSLKPDLMQLRKIRDQYLVWLTQKGARQRKINEWLGIKNETEDQYSLMEDEDALPHHEERTWYVGKINRTQAEEMLSGKRDGTFLIRESSQRGCYACSVVVDGDTKHCVIYRTATGFGFAEPYNLYGSLKELVLHYQHASLVQHNDALTVTLAHPVRAPGPGPPSAAR
notes: No tag (pFastBac1); also called p85-icSH2; source: Sf9 cells, recombinant baculoviruses, coinfected with p110β; complex purified (HisTrap, Q-Sepharose, heparin, gel filtration)
B1: binds.
